Reference: patent US20230265215A1 (OMEROS, published 2023)

Experiments:
[1] = molecular target: T1, CFD (human, UniProt P00746 26-253, limits assumed); assay: solid phase ELISA, against human MASP-2 as reference
T1 construct: Species read from 'Recombinant human MASP-2 or C1r, C1s, CFD, MASP-1 and MASP-3'; also called factor D; complement factor D
Excerpt: (§1) The apparent dissociation constant (KD) was estimated by nonlinear regression using a 4-parameter logistic model.
(§2) Fold selectivity calculated as KD(related serine protease)/mean KD(MASP-2).

[2] = molecular target: rabbit MASP-2 (endogenous, in rabbit serum) (rabbit); assay: cell-based or functional assay
[3] = molecular target: cynomolgus monkey MASP-2 (endogenous, in cynomolgus monkey serum) (cynomolgus monkey, UniProt O00187 16-686 (human entry), limits assumed); assay: cell-based or functional assay
[4] = molecular target: human MASP-2 (endogenous, in normal human serum) (human, UniProt O00187 16-686); assay: cell-based or functional assay
[5] = molecular target: dog MASP-2 (endogenous, in dog serum) (dog); assay: cell-based or functional assay
[6] = molecular target: mouse MASP-2 (endogenous, in mouse serum or hirudin plasma) (mouse, UniProt Q91WP0 20-685); assay: cell-based or functional assay
[7] = molecular target: T2, MASP-3 (human, UniProt P48740-2 20-728, limits assumed); assay: solid phase ELISA, immobilized protease, mean apparent KD of two lots
T2 construct: Species read from 'Recombinant human MASP-2 or C1r, C1s, CFD, MASP-1 and MASP-3'
T2 sequence (looked up): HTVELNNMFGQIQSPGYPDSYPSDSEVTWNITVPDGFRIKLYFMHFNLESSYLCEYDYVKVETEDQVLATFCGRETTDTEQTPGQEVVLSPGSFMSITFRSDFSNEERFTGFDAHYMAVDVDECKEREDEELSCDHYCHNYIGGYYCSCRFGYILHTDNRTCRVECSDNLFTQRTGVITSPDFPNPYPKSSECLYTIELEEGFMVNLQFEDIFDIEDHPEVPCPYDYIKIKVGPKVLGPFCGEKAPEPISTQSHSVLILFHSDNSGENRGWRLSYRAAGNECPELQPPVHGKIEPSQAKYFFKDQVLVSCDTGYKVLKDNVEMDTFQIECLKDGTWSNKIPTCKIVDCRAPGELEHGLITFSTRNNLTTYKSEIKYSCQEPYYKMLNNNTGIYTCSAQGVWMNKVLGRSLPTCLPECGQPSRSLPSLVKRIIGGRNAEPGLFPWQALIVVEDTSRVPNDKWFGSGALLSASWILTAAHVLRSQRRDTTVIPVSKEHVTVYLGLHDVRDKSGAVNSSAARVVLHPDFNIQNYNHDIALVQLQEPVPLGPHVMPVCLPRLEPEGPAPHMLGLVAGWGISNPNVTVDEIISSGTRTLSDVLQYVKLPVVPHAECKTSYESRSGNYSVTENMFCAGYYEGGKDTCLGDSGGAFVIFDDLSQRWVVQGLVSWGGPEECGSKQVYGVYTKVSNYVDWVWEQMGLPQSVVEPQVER
Excerpt: as §1, §2

[8] = molecular target: T1, CFD; assay: as above
Excerpt: as §1, §2

[9] = molecular target: T3, C1s (human, UniProt P09871 16-688, limits assumed); assay: as above
T3 construct: Species read from 'Recombinant human MASP-2 or C1r, C1s, CFD, MASP-1 and MASP-3'
T3 sequence (looked up): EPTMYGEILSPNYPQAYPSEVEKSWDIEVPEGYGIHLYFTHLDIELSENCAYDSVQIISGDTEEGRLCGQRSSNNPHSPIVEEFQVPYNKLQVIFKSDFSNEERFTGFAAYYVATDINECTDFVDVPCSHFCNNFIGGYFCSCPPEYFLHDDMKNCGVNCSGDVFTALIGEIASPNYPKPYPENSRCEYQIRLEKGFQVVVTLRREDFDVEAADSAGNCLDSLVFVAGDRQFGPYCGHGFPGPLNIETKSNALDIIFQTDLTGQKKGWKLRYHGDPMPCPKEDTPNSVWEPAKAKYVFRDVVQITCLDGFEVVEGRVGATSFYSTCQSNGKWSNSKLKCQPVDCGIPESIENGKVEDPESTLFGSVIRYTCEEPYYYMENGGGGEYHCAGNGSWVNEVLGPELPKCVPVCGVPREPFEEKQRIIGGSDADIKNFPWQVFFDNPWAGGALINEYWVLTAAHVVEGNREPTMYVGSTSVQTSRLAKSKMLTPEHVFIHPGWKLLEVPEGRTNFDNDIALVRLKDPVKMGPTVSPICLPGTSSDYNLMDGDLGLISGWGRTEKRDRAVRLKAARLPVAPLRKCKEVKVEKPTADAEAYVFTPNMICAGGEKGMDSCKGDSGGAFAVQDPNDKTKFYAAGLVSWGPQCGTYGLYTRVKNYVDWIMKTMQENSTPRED
Excerpt: as §1, §2

Chain of human MASP-2 (endogenous, in normal human serum) (O00187 16-686 limits assumed): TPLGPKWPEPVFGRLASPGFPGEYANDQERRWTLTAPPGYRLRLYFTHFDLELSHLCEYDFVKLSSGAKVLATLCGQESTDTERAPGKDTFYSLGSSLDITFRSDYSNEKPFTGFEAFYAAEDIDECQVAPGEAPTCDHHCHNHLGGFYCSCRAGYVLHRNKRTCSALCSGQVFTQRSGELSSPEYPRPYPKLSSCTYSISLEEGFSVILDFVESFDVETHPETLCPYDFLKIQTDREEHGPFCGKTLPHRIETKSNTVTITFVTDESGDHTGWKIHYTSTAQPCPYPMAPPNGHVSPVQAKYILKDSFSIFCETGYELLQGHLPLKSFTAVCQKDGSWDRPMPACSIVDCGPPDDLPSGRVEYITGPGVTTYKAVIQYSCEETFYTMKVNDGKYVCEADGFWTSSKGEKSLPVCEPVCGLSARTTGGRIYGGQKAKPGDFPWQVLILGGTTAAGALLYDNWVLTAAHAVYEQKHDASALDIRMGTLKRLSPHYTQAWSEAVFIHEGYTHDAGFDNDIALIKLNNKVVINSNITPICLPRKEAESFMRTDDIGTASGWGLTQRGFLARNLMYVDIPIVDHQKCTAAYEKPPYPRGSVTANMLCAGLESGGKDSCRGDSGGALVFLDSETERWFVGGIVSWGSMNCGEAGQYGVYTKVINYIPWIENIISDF
Chain of cynomolgus monkey MASP-2 (endogenous, in cynomolgus monkey serum) (O00187 other isoform, or with tags, fused parts or gaps limits assumed): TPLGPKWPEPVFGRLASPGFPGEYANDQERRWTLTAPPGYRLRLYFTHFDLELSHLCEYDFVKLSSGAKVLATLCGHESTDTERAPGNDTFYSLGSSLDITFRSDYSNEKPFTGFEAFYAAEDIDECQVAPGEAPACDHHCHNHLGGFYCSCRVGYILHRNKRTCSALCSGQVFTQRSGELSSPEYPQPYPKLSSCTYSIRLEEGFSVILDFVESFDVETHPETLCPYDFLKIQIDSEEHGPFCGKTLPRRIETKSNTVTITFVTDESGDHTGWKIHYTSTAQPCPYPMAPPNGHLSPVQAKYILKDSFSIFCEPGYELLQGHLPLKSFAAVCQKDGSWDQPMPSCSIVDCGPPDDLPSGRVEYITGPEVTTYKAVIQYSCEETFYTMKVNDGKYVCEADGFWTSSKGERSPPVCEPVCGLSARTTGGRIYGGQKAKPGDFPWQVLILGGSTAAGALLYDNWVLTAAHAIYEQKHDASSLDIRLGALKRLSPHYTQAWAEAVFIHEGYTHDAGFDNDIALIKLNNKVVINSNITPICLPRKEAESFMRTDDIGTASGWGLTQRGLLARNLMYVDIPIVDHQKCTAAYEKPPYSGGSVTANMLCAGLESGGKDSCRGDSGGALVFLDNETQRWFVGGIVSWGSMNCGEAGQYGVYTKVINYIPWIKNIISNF
Chain of dog MASP-2 (endogenous, in dog serum) (dog) (chain, as listed by the source limits assumed): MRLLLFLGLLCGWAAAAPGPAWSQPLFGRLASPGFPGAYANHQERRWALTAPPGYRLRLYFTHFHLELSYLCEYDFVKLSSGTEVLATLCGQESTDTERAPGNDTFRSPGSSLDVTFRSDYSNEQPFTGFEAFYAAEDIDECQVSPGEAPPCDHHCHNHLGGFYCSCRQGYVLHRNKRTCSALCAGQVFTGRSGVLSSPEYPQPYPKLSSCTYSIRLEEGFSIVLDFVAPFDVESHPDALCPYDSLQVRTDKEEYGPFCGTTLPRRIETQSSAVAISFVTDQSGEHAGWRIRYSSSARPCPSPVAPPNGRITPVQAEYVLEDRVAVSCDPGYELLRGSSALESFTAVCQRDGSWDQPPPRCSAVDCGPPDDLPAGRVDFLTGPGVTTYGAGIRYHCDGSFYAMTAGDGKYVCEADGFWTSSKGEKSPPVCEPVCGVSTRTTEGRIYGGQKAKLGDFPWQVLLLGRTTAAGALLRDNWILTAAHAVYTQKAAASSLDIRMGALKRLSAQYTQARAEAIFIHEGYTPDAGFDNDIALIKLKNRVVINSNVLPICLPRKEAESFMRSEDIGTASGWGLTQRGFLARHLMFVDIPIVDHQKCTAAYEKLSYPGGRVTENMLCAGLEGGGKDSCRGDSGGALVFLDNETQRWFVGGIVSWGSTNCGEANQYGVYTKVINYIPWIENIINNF
Chain of mouse MASP-2 (endogenous, in mouse serum or hirudin plasma) (Q91WP0 20-685 limits assumed): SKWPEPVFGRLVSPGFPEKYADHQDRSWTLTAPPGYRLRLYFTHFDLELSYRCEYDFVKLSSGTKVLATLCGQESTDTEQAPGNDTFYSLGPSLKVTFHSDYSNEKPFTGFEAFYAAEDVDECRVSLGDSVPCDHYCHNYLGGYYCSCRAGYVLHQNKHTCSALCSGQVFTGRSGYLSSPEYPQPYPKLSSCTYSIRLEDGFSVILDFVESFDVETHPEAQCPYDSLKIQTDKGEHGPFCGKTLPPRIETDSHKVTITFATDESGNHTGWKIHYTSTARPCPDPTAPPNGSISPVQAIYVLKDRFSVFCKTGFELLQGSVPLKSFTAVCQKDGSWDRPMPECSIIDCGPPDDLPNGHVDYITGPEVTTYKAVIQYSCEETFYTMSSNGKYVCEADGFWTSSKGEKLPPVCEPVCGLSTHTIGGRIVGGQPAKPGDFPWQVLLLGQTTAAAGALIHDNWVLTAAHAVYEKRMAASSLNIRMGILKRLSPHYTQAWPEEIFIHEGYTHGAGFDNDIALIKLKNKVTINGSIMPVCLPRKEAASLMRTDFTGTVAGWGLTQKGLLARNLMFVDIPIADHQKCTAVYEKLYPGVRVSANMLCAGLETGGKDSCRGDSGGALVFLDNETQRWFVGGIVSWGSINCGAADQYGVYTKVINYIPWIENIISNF
T1 sequence (P00746 26-253 limits assumed): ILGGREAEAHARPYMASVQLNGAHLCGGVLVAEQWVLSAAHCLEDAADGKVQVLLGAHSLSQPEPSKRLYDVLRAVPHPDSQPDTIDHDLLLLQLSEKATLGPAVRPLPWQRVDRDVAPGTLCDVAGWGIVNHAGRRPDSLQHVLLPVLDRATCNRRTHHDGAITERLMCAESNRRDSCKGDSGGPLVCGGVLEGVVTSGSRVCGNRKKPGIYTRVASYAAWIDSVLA

B1: mAb OMS858 (humanized anti-MASP-2 antibody) (antibody, V domains shown)
VH: QVQLVQSGAEVKKPGASVKVSCKASGYTFTNHHMHWLRQAPGQGLEWIGDIDASDSETHYIEKFKDRATLTIDKSSSTAYMELSSLRSEDTAVYYCARGDITTTLRYFDVWGQGTLVTVSS
VL: DIQLTQSPSSLSASVGDRVTITCSASSSVRYMYWYQQKPGKAPKLLIYDTSNLASGVPSRFSGSGSGTDNTLTISSLQPEDFATYYCQQWSSYPLTFGQGTKVEIKR
notes: also called antibody OMS858; biotinylated OMS858
Fold selectivity (KD related serine protease / mean KD MASP-2) [1]: > 2000 fold
lectin-dependent C4 activation in 50% rabbit serum, IC50, Experiment 1 [2]: > 500 nM
lectin-dependent C4 activation in 50% rabbit serum, IC50, Experiment 2 [2]: > 500 nM
lectin-dependent C4 activation in 50% rabbit serum, IC50, Experiment 3 [2]: > 500 nM
lectin-dependent C4 activation in 50% cynomolgus monkey serum, IC50, Experiment 1 [3]: 42.8 nM
lectin-dependent C4 activation in 50% cynomolgus monkey serum, IC50, Experiment 2 [3]: 44 nM
lectin-dependent C4 activation in 50% cynomolgus monkey serum, IC50, Experiment 3 [3]: 45.5 nM
lectin-dependent C4 activation in 50% cynomolgus monkey serum, IC50, MEAN [3]: 44.1 nM
lectin-dependent C4 activation in 50% human serum, IC50, Experiment 1 [4]: 0.89 nM
lectin-dependent C4 activation in 50% human serum, IC50, Experiment 2 [4]: 0.86 nM
lectin-dependent C4 activation in 50% human serum, IC50, Experiment 3 [4]: 1.52 nM
lectin-dependent C4 activation in 50% human serum, IC50, MEAN [4]: 1.09 nM
lectin-dependent C4 activation in 50% dog serum, IC50, Experiment 1 [5]: > 500 nM
lectin-dependent C4 activation in 50% dog serum, IC50, Experiment 2 [5]: > 500 nM
lectin-dependent C4 activation in 50% dog serum, IC50, Experiment 3 [5]: > 500 nM
lectin-dependent C4 activation in 50% mouse hirudin plasma, IC50, Experiment 1 [6]: 9.59 nM
lectin-dependent C4 activation in 50% mouse hirudin plasma, IC50, Experiment 2 [6]: 11.2 nM
lectin-dependent C4 activation in 50% mouse hirudin plasma, IC50, Experiment 3 [6]: 14.8 nM
lectin-dependent C4 activation in 50% mouse hirudin plasma, IC50, MEAN [6]: 11.9 nM
Kd [7]: > 100 µg/mL
Kd [8]: > 100 µg/mL
Kd [9]: > 100 µg/mL
